Reference: patent US20110117110A1 (FACET BIOTECH, published 2011)

Columns and labels:
EGFR on A431 cells [1] = biological target: T1, EGFR on A431 cells (human, UniProt P00533 25-1210); assay: FACS competition on A431 cells: unlabelled antibody against biotinylated cetuximab (0.5 µg/mL), streptavidin-RPE detection; column Average of Trials 1-3, column SD prints 0.4
T1 construct: whole, on cells; also called epidermal growth factor receptor; ErbB-1
Protocol: (§1) A431 cells were grown to 2×10⁵ cells per well of V-bottom 96-well plates. Cells were washed with FACS staining buffer (FSB). […] The plates were then incubated on ice for 1 hour, and then washed twice with FSB. […] Cells were washed two times with FSB, and stained cells were resuspended with 200 μL of fixing buffer (1% paraformaldehyde). Samples were read using a flow cytometer.

EGFR on A431 cells [2] = biological target: T1, EGFR on A431 cells; assay: FACS competition on A431 cells: unlabelled antibody against biotinylated cetuximab (0.5 µg/mL), streptavidin-RPE detection; Trial 1
Protocol: as §1

EGFR on A431 cells [3] = biological target: T1, EGFR on A431 cells; assay: FACS competition on A431 cells: unlabelled antibody against biotinylated cetuximab (0.5 µg/mL), streptavidin-RPE detection; Trial 2
Protocol: as §1

EGFR on A431 cells [4] = biological target: T1, EGFR on A431 cells; assay: FACS competition on A431 cells: unlabelled antibody against biotinylated cetuximab (0.5 µg/mL), streptavidin-RPE detection; Trial 3
Protocol: as §1

EGFR on A431 cells [5] = biological target: T1, EGFR on A431 cells; assay: FACS competition on A431 cells against biotinylated cetuximab; panel FACS Competition (3)
Protocol: as §1

EGFR on A431 cells [6] = biological target: T1, EGFR on A431 cells; assay: FACS competition on A431 cells against biotinylated cetuximab; panel FACS Competition (2)
Protocol: as §1

IC50 (EGFR on A431 cells [1]): 1.79 µg/mL
IC50 (EGFR on A431 cells [2]): 1.71 µg/mL
IC50 (EGFR on A431 cells [3]): 1.06 µg/mL
IC50 (EGFR on A431 cells [4]): 2.62 µg/mL
IC50 (read off the curve) (EGFR on A431 cells [5]): ~3 µg/mL
IC50 (read off the curve) (EGFR on A431 cells [6]): ~1 µg/mL
B1: hu225 (antibody, V domains shown)
VH: EVQLVESGGGLVQPGGSLRLSCAASGFSLTNYGVHWVRQAPGKGLEWLGVIWSGGNTDYNTPFTSRLTINKDNSKNTVYLQMNSLRAEDTAVYYCARALTYYDYEFAYWGQGTLVTVSS
VL: DILLTQSPGTLSLSPGERATLSCRASQSIGTNIHWYQQKPGQAPRLLIKYASESISGIPDRFSGSGSGTDFTLTISRLEPEDFAVYYCQQNNNWPTTFGQGTKLEIKR
notes: also called humanized version of MAb225; humanized cetuximab
